Results published in PMC4776140, “Stimulation of translation by human Unr requires cold shock domains 2 and 4, and correlates with poly(A) binding protein interaction” (Scientific Reports, 2016).

Molecular target: T1, GST-tagged PABP1 (UniProt P11940 1-636)
T1 construct: also called GST-PABP1; source: E. coli BL21(DE3) from pGEX2T, purified (glutathione Sepharose 4B)
Experiment: pull-down; as the GST pull-down, with 0.1 mg/ml RNase A added to the TnT reaction, 30 min at 30 °C before pull down; value relative to no RNase A
Details: one partner purified

percent pull-down with RNase A relative to no RNase A: 79%
B1: wild type Unr, in vitro translated, 35S-labelled (natural protein, human, UniProt O75534-2 1-767, looked up)
chain: MSFDPNLLHNNGHNGYPNGTSAALRETGVIEKLLTSYGFIQCSERQARLFFHCSQYNGNLQDLKVGDDVEFEVSSDRRTGKPIAVKLVKIKQEILPEERMNGQEVFYLTYTPEDVEGNVQLETGDKINFVIDNNKHTGAVSARNIMLLKKKQARCQGVVCAMKEAFGFIERGDVVKEIFFHYSEFKGDLETLQPGDDVEFTIKDRNGKEVATDVRLLPQGTVIFEDISIEHFEGTVTKVIPKVPSKNQNDPLPGRIKVDFVIPKELPFGDKDTKSKVTLLEGDHVRFNISTDRRDKLERATNIEVLSNTFQFTNEAREMGVIAAMRDGFGFIKCVDRDVRMFFHFSEILDGNQLHIADEVEFTVVPDMLSAQRNHAIRIKKLPKGTVSFHSHSDHRFLGTVEKEATFSNPKTTSPNKGKEKEAEDGIIAYDDCGVKLTIAFQAKDVEGSTSPQIGDKVEFSISDKQRPGQQVATCVRLLGRNSNSKRLLGYVATLKDNFGFIETANHDKEIFFHYSEFSGDVDSLELGDMVEYSLSKGKGNKVSAEKVNKTHSVNGITEEADPTIYSGKVIRPLRSVDPTQTEYQGMIEIVEEGDMKGEVYPFGIVGMANKGDCLQKGESVKFQLCVLGQNAQTMAYNITPLRRATVECVKDQFGFINYEVGDSKKLFFHVKEVQDGIELQAGDEVEFSVILNQRTGKCSACNVWRVCEGPKAVAAPRPDRLVNRLKNITLDDASAPRLMVLRQPRGPDNSMGFGAERKIRQAGVID
modifications: radiolabelled with [35S] methionine
notes: numbers count on: Unr protein isoform 2; Same pET21d plasmids as for the histidine-tagged recombinant Unr; also called wt Unr; CSDE1; source: in vitro transcribed/translated from pET21d plasmid (TnT Quick Coupled System, Promega), not purified
